In this test the target is T1, eHead_H1_v3.1_mC.
T1 chain: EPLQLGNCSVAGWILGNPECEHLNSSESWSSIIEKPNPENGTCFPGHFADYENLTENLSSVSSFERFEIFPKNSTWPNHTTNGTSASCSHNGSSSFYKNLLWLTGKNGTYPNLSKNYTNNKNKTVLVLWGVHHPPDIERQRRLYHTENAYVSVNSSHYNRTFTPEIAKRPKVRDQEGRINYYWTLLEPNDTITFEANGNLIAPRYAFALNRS
The test is described as follows: SPR. In general terms: In SPR one partner is held on a chip, and binding of the other changes the refractive index at the surface.

A word on the Kd: it is the constant that tells how readily two partners part at equilibrium. A low value points to a tighter complex.

B1: FluA20 (as used in the SPR experiments of Example 4) (antibody, V domains shown)
VH: QVQLQESGPGLVKPSETLSLTCSVSGVSVTSDIYYWTWIRQPPGKGLEWIGYIFYNGDTNYNPSLKSRVTMSIDTSKNEFSLRLTSVTAADTAVYFCARGTEDLGYCSSGSCPNHWGQGTLVTVSS
VL: DIQMTQSPSSLSASIGDRVTITCRPSQNIRSFLNWFQHKPGKAPKLLIYAASNLQSGVPSRFSGSGSGTEFTLTIRSLQPEDFATYYCQQSYNTPPTFGQGTKVEIK
For B1, the affinity, expressed as Kd, was 2.8 nM.

B2: FluA20_UCA (as used in the SPR experiments of Example 4) (antibody, V domains shown)
VH: QVQLQESGPGLVKPSETLSLTCTVSGGSVSSGSYYWSWIRQPPGKGLEWIGYIYYSGSTNYNPSLKSRVTISVDTSKNQFSLKLSSVTAADTAVYYCARGTEDLGYCSGGSCPNHWGQGTLVTVSS
VL: not shown
In turn, B2 showed a Kd of 220 nM.

Source of the values: patent US20220387578A1 (VANDERBILT UNIVERSITY, published 2022).
